Target: T1, TRPV2-MBP (wild-type TRPV2 with an N-terminal maltose binding protein tag), Q9WUD2
T1 chain: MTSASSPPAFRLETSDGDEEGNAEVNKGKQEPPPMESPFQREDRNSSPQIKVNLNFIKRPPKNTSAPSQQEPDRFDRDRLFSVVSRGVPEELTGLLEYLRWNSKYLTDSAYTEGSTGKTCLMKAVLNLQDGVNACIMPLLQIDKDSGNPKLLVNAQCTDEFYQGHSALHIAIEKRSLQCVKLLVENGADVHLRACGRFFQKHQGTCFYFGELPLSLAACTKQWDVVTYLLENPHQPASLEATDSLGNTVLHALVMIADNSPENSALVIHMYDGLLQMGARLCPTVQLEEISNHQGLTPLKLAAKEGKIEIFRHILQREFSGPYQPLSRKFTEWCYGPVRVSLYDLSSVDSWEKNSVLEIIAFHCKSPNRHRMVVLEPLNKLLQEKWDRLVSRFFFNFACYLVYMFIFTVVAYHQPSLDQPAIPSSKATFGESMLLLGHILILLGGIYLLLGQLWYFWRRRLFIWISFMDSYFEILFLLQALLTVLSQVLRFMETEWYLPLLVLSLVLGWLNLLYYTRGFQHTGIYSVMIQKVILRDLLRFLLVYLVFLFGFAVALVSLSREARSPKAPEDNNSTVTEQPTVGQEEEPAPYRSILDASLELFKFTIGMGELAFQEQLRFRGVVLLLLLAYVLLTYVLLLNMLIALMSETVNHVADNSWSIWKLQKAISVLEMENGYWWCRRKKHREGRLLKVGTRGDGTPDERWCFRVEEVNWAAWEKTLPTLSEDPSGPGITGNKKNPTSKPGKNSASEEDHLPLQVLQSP
Assay: SEC
Conditions: remark: other sources report otherwise

stoichiometry N: 4
B1: TRPV2-MBP (wild-type TRPV2 with an N-terminal maltose binding protein tag), Q9WUD2 1-761 (natural protein)
chain: T1 chain
